In this test the target is CD19 on KILR Raji cells (UniProt P15391). Kind of test: cell-based or functional assay.
Chain of CD19 on KILR Raji cells (P15391 20-556 limits assumed): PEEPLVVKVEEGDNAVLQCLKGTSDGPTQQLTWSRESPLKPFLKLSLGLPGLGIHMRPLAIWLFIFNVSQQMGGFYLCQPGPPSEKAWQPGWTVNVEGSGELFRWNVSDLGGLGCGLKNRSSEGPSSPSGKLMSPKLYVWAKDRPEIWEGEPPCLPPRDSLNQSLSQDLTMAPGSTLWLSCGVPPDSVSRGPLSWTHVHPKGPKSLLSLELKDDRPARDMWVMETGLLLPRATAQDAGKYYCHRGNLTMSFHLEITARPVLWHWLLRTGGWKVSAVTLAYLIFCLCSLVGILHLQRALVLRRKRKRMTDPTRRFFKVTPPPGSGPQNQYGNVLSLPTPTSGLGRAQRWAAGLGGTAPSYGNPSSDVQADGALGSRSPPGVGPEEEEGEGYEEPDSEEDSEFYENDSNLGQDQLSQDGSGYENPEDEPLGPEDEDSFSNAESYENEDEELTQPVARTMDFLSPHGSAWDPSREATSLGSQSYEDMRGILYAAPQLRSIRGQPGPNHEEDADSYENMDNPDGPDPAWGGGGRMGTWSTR

On to blinatumomab (bispecific antibody), for which the EC50 of T cell-redirected killing of KILR Raji cells, +HSA (15 mg/mL) turned out to be 10.8 ng/mL and the EC50 of T cell-redirected killing of KILR Raji cells, -HSA was 2.85 ng/mL.

For the origin of these results see patent publication US20230032087A1.
